The text below walks through data of US11827699 (dated 2023).

B1: IL6R-BP237 (antibody)
chain 1: QVQLQESGPGLVKPSETLSLTCAVSGHSISHDHAWSWVRQPPGEGLEWIGFISYSGITNYNPSLQGRVTISRDNSKNTLYLQMNSLRAEDTAVYYCARSLARTTAMDYWGEGTLVTVSSASTKGPSVFPLAPSSKSTSGGTAALGCLVKDYFPEPVTVSWNSGALTSGVHTFPAVLQSSGLYSLSSVVTVPSSSLGTQTYICNVNHKPSNTKVDKKVEPKSCDKTHTCPPCPAPDYLGDDSVFLFPPKPKDTLMISRTPEVTCVVVDVQDEDGEVKFNWYVDGVEVHNAKTKPREEQDNSTYRVVSVLTVLHQDWLNGKEYKCKVSNAALPKPIEKTISKAKGQPREPQVYTLPPSRDELTKNQVSLTCLVKGFYPSDIAVEWESNGQPENNYKTTPPVLDSDGSFFLYSKLTVDKSRWQQGNVFSCSVMHEALHNHYTQESLSLSP
chain 2: not shown
B2: IL6R-BP239 (antibody)
chain 1: B1 chain 1 with K332R
chain 2: not shown
B3: IL6R-BP228 (antibody)
chain 1: B1 chain 1 with D235E, D298Y, A328D, K332R
chain 2: not shown
B4: IL6R-BP152 (antibody)
chain 1: B1 chain 1 with Q269S, D270H, G273P
chain 2: not shown
B5: IL6R-BP150 (antibody)
chain 1: B1 chain 1 with D235E, Q269S, D270H, G273P, D298Y
chain 2: not shown
B6: IL6R-BP151 (antibody)
chain 1: B1 chain 1 with Q269S, D270H, G273P, D298Y
chain 2: not shown
B7: IL6R-BP487 (antibody)
chain 1: B1 chain 1 with Y236L, V266I, Q269A, D270E, D298Y, A328K, K332R, P398M
chain 2: not shown
B8: IL6R-BP498 (antibody)
chain 1: B1 chain 1 with Y236L, V266I, Q269A, D270E, D298Y, A328K, K332R, P398L
chain 2: not shown
B9: IL6R-BP502 (antibody)
chain 1: B1 chain 1 with Y236L, V266I, Q269A, D270E, A328K, A329G, K332R
chain 2: not shown
B10: IL6R-BP494 (antibody)
chain 1: B1 chain 1 with D235E, Y236L, Q269A, D270E, A328K, K332R
chain 2: not shown
B11: IL6R-BP488 (antibody)
chain 1: B1 chain 1 with Y236L, V266I, Q269A, D270E, A328K, K332R
chain 2: not shown
B12: IL6R-BP269 (antibody)
chain 1: B1 chain 1 with D235E, Y236L, Q269S, D270E, A328K, K332A
chain 2: not shown
B13: IL6R-BP500 (antibody)
chain 1: B1 chain 1 with D235E, Y236L, V266I, Q269A, D270E, A328K, K332A
chain 2: not shown
B14: IL6R-BP497 (antibody)
chain 1: B1 chain 1 with Y236L, V266I, Q269A, D270E, D298Y, A328K, A329G, K332R
chain 2: not shown
B15: IL6R-BP508 (antibody)
chain 1: B1 chain 1 with Y236L, V266I, Q269A, D270E, E274P, A328K, K332A
chain 2: not shown
B16: IL6R-BP509 (antibody)
chain 1: B1 chain 1 with Y236L, V266I, Q269A, D270E, E274D, A328K, K332A
chain 2: not shown
B17: IL6R-BP492 (antibody)
chain 1: B1 chain 1 with D235E, Y236L, D239G, V266I, Q269A, D270E, D298Y, A328K, K332A
chain 2: not shown
B18: IL6R-BP249 (antibody)
chain 1: B1 chain 1 with Q269S, A328K, K332R
chain 2: not shown
B19: IL6R-BP220 (antibody)
chain 1: B1 chain 1 with Y236L, Q269S, A328K
chain 2: not shown
B20: IL6R-BP243 (antibody)
chain 1: B1 chain 1 with Q269S, D298Y, A328K, K332R
chain 2: not shown
B21: IL6R-BP246 (antibody)
chain 1: B1 chain 1 with Y236L, K332R
chain 2: not shown
B22: IL6R-BP233 (antibody)
chain 1: B1 chain 1 with D235E, Q269S, D270H, D298Y, A328K
chain 2: not shown
B23: IL6R-BP514 (antibody)
chain 1: B1 chain 1 with Y236L, Q269S, D270E, E274F, D298Y, A328K, K332A
chain 2: not shown
B24: IL6R-BP520 (antibody)
chain 1: B1 chain 1 with Y236L, Q269S, D270E, E274M, D298Y, A328K, K332A
chain 2: not shown
B25: IL6R-BP348 (antibody)
chain 1: B1 chain 1 with Y236L, Q269A, D270E, D298Y, A328K, K332A
chain 2: not shown
B26: IL6R-BP517 (antibody)
chain 1: B1 chain 1 with Y236L, Q269S, D270E, E274I, D298Y, A328K, K332A
chain 2: not shown
B27: IL6R-BP474 (antibody)
chain 1: B1 chain 1 with Y236L, Q269S, A328K, K332S, P333S
chain 2: not shown
B28: IL6R-BP471 (antibody)
chain 1: B1 chain 1 with Y236L, Q269S, A328K, K332R, P333S
chain 2: not shown
B29: IL6R-BP475 (antibody)
chain 1: B1 chain 1 with Y236L, Q269S, A328K, A329G, K332S
chain 2: not shown

Residue numbers refer to the chain shown, from its start.

For the first experiment, the target named is T1, human FcγRIIb (human, UniProt P31994).
T1 chain: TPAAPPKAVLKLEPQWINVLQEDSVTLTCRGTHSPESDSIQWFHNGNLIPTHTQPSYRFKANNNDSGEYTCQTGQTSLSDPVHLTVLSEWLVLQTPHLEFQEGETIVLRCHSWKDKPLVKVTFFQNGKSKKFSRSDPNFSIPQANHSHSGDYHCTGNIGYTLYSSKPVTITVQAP
In words: SPR.
What is called Kd is the constant that tells how readily two partners part at equilibrium. A lower Kd goes with higher affinity. In the case of B1, binding was put at a Kd of 100 nM.
Still for that read-out and setting: the same measure for B2: 60 nM; for B3: 40 nM.

The next experiment concerns the target T2, human FcγRIa (human, UniProt P12314).
T2 chain: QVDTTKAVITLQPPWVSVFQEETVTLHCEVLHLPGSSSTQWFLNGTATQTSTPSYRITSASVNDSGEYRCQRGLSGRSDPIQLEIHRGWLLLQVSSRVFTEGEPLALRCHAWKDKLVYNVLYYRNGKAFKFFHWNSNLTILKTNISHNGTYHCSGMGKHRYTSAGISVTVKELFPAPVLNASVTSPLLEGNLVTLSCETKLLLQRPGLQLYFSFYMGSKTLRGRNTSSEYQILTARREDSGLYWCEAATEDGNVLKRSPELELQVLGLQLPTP
In words: SPR. (In general: SPR reads the build-up and loss of mass on a sensor chip optically.)
In turn, B4 came in with a Kd of 73 nM.
The same measure, in the same setting: the same measure for B5: 320 nM; for B6: 84 nM.

For a further experiment, the target named is T1, human FcγRIIb. The experiment in a line: SPR. The source holds these as a separate data set.
With B4, the Kd came to 41 nM.
With B5, the Kd amounted to 31 nM. This Kd and that of the molecule before are within 1.5-fold of each other.
The same measure, in the same setting: for B6 the value was 40 nM.

Another experiment has as its target T3, human FcγRIIa R131 (human, UniProt P12318).
T3 chain: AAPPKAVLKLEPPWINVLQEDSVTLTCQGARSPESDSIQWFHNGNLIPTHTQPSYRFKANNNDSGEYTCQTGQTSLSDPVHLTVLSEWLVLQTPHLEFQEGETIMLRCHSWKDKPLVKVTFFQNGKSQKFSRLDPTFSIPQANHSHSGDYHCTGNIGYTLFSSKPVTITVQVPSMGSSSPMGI
The experiment in a line: SPR.
B4: the Kd came out at 810 nM.
On the same count and under the same terms, for B5 the value was 550 nM; for B6, 670 nM.

Another experiment concerns the target T4, human FcγRIIa H131 (human, UniProt P12318).
T4 chain: T3 chain with R132H
In words: SPR.
Molecule B7 registered a Kd of 840 nM.
Same read-out and setting: the same measure for B8: 930 nM; for B9: 1300 nM; for B10: 5400 nM.
B11: the Kd was 1600 nM.
As for B12, binding was characterised by a dissociation constant (Kd) of 72000 nM.
B13 displayed a Kd of 25000 nM. Compared with the last molecule, the Kd is about 2.9-fold lower.
Same read-out and setting: the same measure for B14: 960 nM; for B15: 20000 nM; for B16: 7900 nM.
The same measure, in the same setting: for B17 the value was 16000 nM.

A further experiment concerns the target T3, human FcγRIIa R131. The experiment in a line: SPR. This is another data set of the same source.
In turn, B7 returned a dissociation constant (Kd) of 39 nM.
Still for that read-out and setting: the same measure for B8: 51 nM.
The molecule B9 gave a Kd of 110 nM.
Still for that read-out and setting: for B10 the value was 250 nM; for B11, 74 nM; for B12, 2200 nM.
The same measure, in the same setting: the same measure for B13: 720 nM; for B14: 85 nM; for B15: 540 nM.
Same read-out and setting: for B16 the value was 520 nM; for B17, 920 nM.

The target of another experiment is T2, human FcγRIa. In words: SPR. This is another data set of the same source.
With B18, the Kd came to 7 nM. In other words, the single-digit nanomolar range.
Molecule B19 registered a Kd of 20 nM.
The molecule B20 registered a dissociation constant Kd of 3 nM. This Kd is about 6.7-fold lower than that of the molecule before.
On the same count and under the same terms, the same measure for B21: 8 nM; for B22: 70 nM.

The target in the next experiment is T1, human FcγRIIb. The experiment in a line: SPR. This is another data set of the same source.
B7 showed a Kd of 1.2 nM. This counts as single-digit nanomolar.
On the same count and under the same terms, for B8 the value was 1.7 nM; for B9, 3.7 nM.
In turn, B10 yielded a Kd of 6.6 nM.
B11 registered a Kd of 1.9 nM.
Turning to B12, the Kd was found to be 110 nM. This Kd lies about 58-fold higher than the previous one.
Consider B13, for which binding was put at a Kd of 24 nM.
The molecule B14 registered a Kd of 4.1 nM.
B15 came in with a Kd of 21 nM.
Molecule B16 came in with a Kd of 18 nM.
The same measure, in the same setting: the same measure for B17: 24 nM.

The target of the next experiment is human FcγRIIIa V158 (human, UniProt P08637). The experiment in a line: SPR.
human FcγRIIIa V158, sequence (P08637 17-208 F176V): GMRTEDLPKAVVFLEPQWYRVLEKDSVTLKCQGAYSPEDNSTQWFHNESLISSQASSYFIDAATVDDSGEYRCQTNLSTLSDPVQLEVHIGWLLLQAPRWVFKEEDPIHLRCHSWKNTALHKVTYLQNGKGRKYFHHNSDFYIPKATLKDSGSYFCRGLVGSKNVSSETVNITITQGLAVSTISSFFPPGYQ
For B7, the Kd worked out at 10000 nM.
The molecule B8 yielded a Kd of 10000 nM.
Still for that read-out and setting: the same measure for B9: 24000 nM.
On the same count and under the same terms, the same measure for B10: 40000 nM; for B11: 20000 nM.
Still for that read-out and setting: the same measure for B12: 140000 nM; for B13: 39000 nM; for B14: 28000 nM.
On to B15, for which the Kd was 61000 nM.
In the case of B16, the Kd came out at 23000 nM.
The same measure, in the same setting: the same measure for B17: 36000 nM.

Another experiment addresses T3, human FcγRIIa R131. The experiment in a line: SPR. This is another data set of the same source.
For B23, binding was put at a Kd of 30000 nM.
Take B24: the Kd was 3000 nM.
Molecule B25 yielded a Kd of 700 nM.
Turning to B26, the Kd is 2100 nM.

The next experiment concerns the target T2, human FcγRIa. In words: SPR. The source holds these as a separate data set.
B7 yielded a dissociation constant Kd of 1.2 nM.
The same measure, in the same setting: the same measure for B8: 1.3 nM; for B9: 2.1 nM; for B10: 3.9 nM.
For B11, the Kd was 2.2 nM.
Still for that read-out and setting: the same measure for B12: 14 nM; for B13: 2.3 nM.
Same read-out and setting: the same measure for B14: 2.1 nM.
In turn, B15 gave a Kd of 1.4 nM.
The molecule B16 displayed a Kd of 1.1 nM. This Kd and that of the molecule before are within 1.5-fold of each other.
In the case of B17, binding was characterised by a dissociation constant (Kd) of 0.79 nM.

For a further experiment, the target named is T3, human FcγRIIa R131. In words: SPR. The source holds these as a separate data set.
With B27, the Kd came to 3000 nM. This lies in the single-digit micromolar range.
The same measure, in the same setting: for B28 the value was 800 nM; for B29, 1000 nM.
